Assay results from the supplement of paper PMC9112550, “Optimization of the antimicrobial peptide Bac7 by deep mutational scanning” (BMC Biology, 2022).

Tested on: Escherichia coli TOP10
Assay: shrunken log2 fold change of peptide-encoding DNA abundance (4.5 h post-induction vs induction); higher = less antimicrobial activity (less host growth inhibition)
Conditions: time post-induction: 4.5 h; library: site-saturation at positions 5, 18, 19, 20
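Further: peptides expressed intracellularly from a pBAD plasmid library in pooled LB shake-flask culture, induced with 0.3% L-arabinose, DNA abundance read by NGS, three biological replicates, DESeq2 with apeglm shrinkage.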

| Sequence | shrunken log2 fold change |
| --- | --- |
| RRIRRRPPRLPRPRPRPLNFPRP | -0.115 |
| RRIRDRPPRLPRPRPRPIAYPRP | -0.114 |
| RRIRERPPRLPRPRPRPFLIPRP | -0.728 |
| RRIRARPPRLPRPRPRPMLIPRP | 0.0528 |
| RRIRVRPPRLPRPRPRPAPCPRP | 0.168 |
| RRIRIRPPRLPRPRPRPQRTPRP | 0.0834 |
| RRIRCRPPRLPRPRPRPKLFPRP | 0.132 |
| RRIRRRPPRLPRPRPRPNYMPRP | -0.605 |
| RRIRNRPPRLPRPRPRPPMCPRP | 0.154 |
| RRIRIRPPRLPRPRPRPRVCPRP | 0.00058 |
| RRIRYRPPRLPRPRPRPGEMPRP | -0.0218 |
| RRIRDRPPRLPRPRPRPRMLPRP | 0.229 |
| RRIRKRPPRLPRPRPRPKHNPRP | 0.0641 |
| RRIRVRPPRLPRPRPRPCCGPRP | -0.248 |
| RRIRVRPPRLPRPRPRPLWCPRP | -0.303 |
| RRIRYRPPRLPRPRPRPYHHPRP | -0.0688 |
| RRIRKRPPRLPRPRPRPWSKPRP | 0.00888 |
| RRIRSRPPRLPRPRPRPTIFPRP | -0.377 |
| RRIRTRPPRLPRPRPRPHTHPRP | -0.873 |
| RRIRWRPPRLPRPRPRPMPNPRP | -0.0767 |
| RRIRCRPPRLPRPRPRPDVQPRP | 0.0161 |
| RRIRARPPRLPRPRPRPGNDPRP | -0.00116 |
| RRIRERPPRLPRPRPRPVPWPRP | 0.0881 |
| RRIRFRPPRLPRPRPRPGRDPRP | 0.0984 |
| RRIRERPPRLPRPRPRPYGNPRP | -0.0871 |

| Sequence | shrunken log2 fold change |
| --- | --- |
| RRIRIRPPRLPRPRPRPNWYPRP | -0.519 |
| RRIRCRPPRLPRPRPRPDWNPRP | -0.523 |
| RRIRWRPPRLPRPRPRPISLPRP | -0.161 |
| RRIRSRPPRLPRPRPRPAWIPRP | -0.0375 |
| RRIRCRPPRLPRPRPRPYFFPRP | -0.614 |
| RRIRLRPPRLPRPRPRPKCYPRP | -0.414 |
| RRIRWRPPRLPRPRPRPFINPRP | -0.635 |
| RRIRSRPPRLPRPRPRPFQTPRP | -0.266 |
| RRIRLRPPRLPRPRPRPGFKPRP | 0.0325 |
| RRIRWRPPRLPRPRPRPKEPPRP | 0.117 |
| RRIRIRPPRLPRPRPRPNKTPRP | -0.125 |
| RRIRKRPPRLPRPRPRPKRYPRP | 0.032 |
| RRIRHRPPRLPRPRPRPNDLPRP | 0.0529 |
| RRIRERPPRLPRPRPRPWGKPRP | -0.042 |
| RRIRTRPPRLPRPRPRPFKLPRP | -0.0476 |
| RRIRNRPPRLPRPRPRPGIHPRP | 0.0285 |
| RRIRQRPPRLPRPRPRPRPRPRP | 0.414 |
| RRIRLRPPRLPRPRPRPSGTPRP | -0.114 |
| RRIRPRPPRLPRPRPRPVDDPRP | 0.103 |
| RRIRLRPPRLPRPRPRPWCMPRP | -0.408 |
| RRIRARPPRLPRPRPRPYRKPRP | -0.502 |
| RRIRSRPPRLPRPRPRPCWYPRP | -0.393 |
| RRIRCRPPRLPRPRPRPCWSPRP | -0.352 |
| RRIRERPPRLPRPRPRPGNQPRP | -0.00399 |
| RRIRNRPPRLPRPRPRPADGPRP | 0.085 |

| Sequence | shrunken log2 fold change |
| --- | --- |
| RRIRQRPPRLPRPRPRPDTLPRP | 0.016 |
| RRIRFRPPRLPRPRPRPLDPPRP | 0.0688 |
| RRIRKRPPRLPRPRPRPSDNPRP | 0.0936 |
| RRIRPRPPRLPRPRPRPEFVPRP | -0.0384 |
| RRIRMRPPRLPRPRPRPSTEPRP | 1.63 |
| RRIRKRPPRLPRPRPRPKMAPRP | 0.169 |
| RRIRFRPPRLPRPRPRPWAQPRP | -0.141 |
| RRIRNRPPRLPRPRPRPVSFPRP | 0.0749 |
| RRIRHRPPRLPRPRPRPYTVPRP | 0.0229 |
| RRIRMRPPRLPRPRPRPSMNPRP | -0.287 |
| RRIRVRPPRLPRPRPRPEHPPRP | 0.0168 |
| RRIRGRPPRLPRPRPRPCPRPRP | 0.23 |
| RRIRRRPPRLPRPRPRPWNRPRP | -0.049 |
| RRIRYRPPRLPRPRPRPNQLPRP | -0.439 |
| RRIRIRPPRLPRPRPRPRVKPRP | -0.0816 |
| RRIRFRPPRLPRPRPRPYCYPRP | -0.749 |
| RRIRFRPPRLPRPRPRPPSLPRP | -0.112 |
| RRIRHRPPRLPRPRPRPHCIPRP | -0.199 |
| RRIRHRPPRLPRPRPRPFKRPRP | 0.0885 |
| RRIRFRPPRLPRPRPRPGGSPRP | -0.0392 |
| RRIRNRPPRLPRPRPRPTCQPRP | 0.0956 |
| RRIRNRPPRLPRPRPRPKHAPRP | 0.0877 |
| RRIRARPPRLPRPRPRPRWNPRP | 0.00795 |
| RRIRDRPPRLPRPRPRPINQPRP | -0.389 |
| RRIRFRPPRLPRPRPRPLGLPRP | -0.0983 |

| Sequence | shrunken log2 fold change |
| --- | --- |
| RRIRNRPPRLPRPRPRPCLPPRP | -0.217 |
| RRIRFRPPRLPRPRPRPKRSPRP | 1.12 |
| RRIRHRPPRLPRPRPRPDNFPRP | -0.0184 |
| RRIRMRPPRLPRPRPRPITKPRP | 0.0745 |
| RRIRMRPPRLPRPRPRPLSYPRP | 0.134 |
| RRIRCRPPRLPRPRPRPTHQPRP | 0.476 |
| RRIRNRPPRLPRPRPRPLQYPRP | -0.0315 |
| RRIRDRPPRLPRPRPRPIWVPRP | -0.0618 |
| RRIRKRPPRLPRPRPRPYEYPRP | 0.0169 |
| RRIRVRPPRLPRPRPRPWERPRP | 0.153 |
| RRIRWRPPRLPRPRPRPPNKPRP | 0.206 |
| RRIRSRPPRLPRPRPRPPQKPRP | 0.463 |
| RRIRLRPPRLPRPRPRPHKAPRP | -0.0451 |
| RRIRMRPPRLPRPRPRPYGLPRP | -0.248 |
| RRIRCRPPRLPRPRPRPFQFPRP | 0.133 |
| RRIRIRPPRLPRPRPRPCPQPRP | -0.458 |
| RRIRPRPPRLPRPRPRPCRFPRP | 0.086 |
| RRIRWRPPRLPRPRPRPPYKPRP | -0.249 |
| RRIRVRPPRLPRPRPRPGNRPRP | -0.0858 |
| RRIRTRPPRLPRPRPRPVSRPRP | 0.464 |
| RRIRPRPPRLPRPRPRPLKKPRP | 0.295 |
| RRIRDRPPRLPRPRPRPTAVPRP | 0.421 |
| RRIRVRPPRLPRPRPRPSISPRP | -0.357 |
| RRIRWRPPRLPRPRPRPVYQPRP | -0.196 |
| RRIRYRPPRLPRPRPRPIRIPRP | -0.144 |

| Sequence | shrunken log2 fold change |
| --- | --- |
| RRIRPRPPRLPRPRPRPWVLPRP | -0.0962 |
| RRIRIRPPRLPRPRPRPWQLPRP | -0.0817 |
| RRIRGRPPRLPRPRPRPPRWPRP | 1.17 |
| RRIRLRPPRLPRPRPRPKKMPRP | 0.126 |
| RRIRWRPPRLPRPRPRPKKFPRP | 0.0141 |
| RRIRQRPPRLPRPRPRPQSVPRP | 0.0191 |
| RRIRWRPPRLPRPRPRPAHYPRP | -0.145 |
| RRIRMRPPRLPRPRPRPNCKPRP | 0.102 |
| RRIRKRPPRLPRPRPRPQCKPRP | 0.0757 |
| RRIRKRPPRLPRPRPRPCIKPRP | 0.193 |
| RRIRGRPPRLPRPRPRPCATPRP | 2.7 |
| RRIRVRPPRLPRPRPRPDKDPRP | -0.337 |
| RRIRVRPPRLPRPRPRPMCHPRP | -0.0674 |
| RRIRYRPPRLPRPRPRPVGWPRP | 0.344 |
| RRIRDRPPRLPRPRPRPKTMPRP | -0.0184 |
| RRIRFRPPRLPRPRPRPFSKPRP | 0.033 |
| RRIRTRPPRLPRPRPRPAGVPRP | 0.107 |
| RRIRRRPPRLPRPRPRPTHLPRP | 0.578 |
| RRIRFRPPRLPRPRPRPMTSPRP | -0.552 |
| RRIRTRPPRLPRPRPRPRIPPRP | 0.00212 |
| RRIRPRPPRLPRPRPRPNRMPRP | -0.138 |
| RRIRPRPPRLPRPRPRPTYGPRP | -0.171 |
| RRIRVRPPRLPRPRPRPDIRPRP | -0.179 |
| RRIRTRPPRLPRPRPRPLCGPRP | 0.0512 |
| RRIRMRPPRLPRPRPRPGVIPRP | 3.26 |

| Sequence | shrunken log2 fold change |
| --- | --- |
| RRIRFRPPRLPRPRPRPNWHPRP | -0.0729 |
| RRIRTRPPRLPRPRPRPRGKPRP | 0.259 |
| RRIRKRPPRLPRPRPRPAKAPRP | 0.106 |
| RRIRQRPPRLPRPRPRPTCAPRP | 0.406 |
| RRIRRRPPRLPRPRPRPALAPRP | 0.516 |
| RRIRQRPPRLPRPRPRPKCNPRP | -0.472 |
| RRIRNRPPRLPRPRPRPDIIPRP | -0.0869 |
| RRIRPRPPRLPRPRPRPRFDPRP | 0.197 |
| RRIRPRPPRLPRPRPRPYKRPRP | -0.345 |
| RRIRRRPPRLPRPRPRPKRQPRP | 0.584 |
| RRIRMRPPRLPRPRPRPFPWPRP | 0.114 |
| RRIRNRPPRLPRPRPRPAMEPRP | 0.243 |
| RRIRKRPPRLPRPRPRPVKYPRP | 0.221 |
| RRIRKRPPRLPRPRPRPGAFPRP | 0.369 |
| RRIRERPPRLPRPRPRPWDWPRP | 0.0223 |
| RRIRCRPPRLPRPRPRPIPKPRP | 0.326 |
| RRIRARPPRLPRPRPRPASAPRP | 0.52 |
| RRIRGRPPRLPRPRPRPQENPRP | 0.462 |
| RRIRMRPPRLPRPRPRPVQAPRP | 1.26 |
| RRIRMRPPRLPRPRPRPNINPRP | -0.356 |
| RRIRGRPPRLPRPRPRPPAQPRP | 1.4 |
| RRIRMRPPRLPRPRPRPCVCPRP | -0.00811 |
| RRIRYRPPRLPRPRPRPTAQPRP | 0.0778 |
| RRIRCRPPRLPRPRPRPFMCPRP | -0.0735 |
| RRIRCRPPRLPRPRPRPNRWPRP | 0.0409 |
